We go through six substances from patent US9133440B2, “Generation of new pancreatic beta cells” (priority 2012, dated 2015).

Assay [1] concerns the target T1, Reg Receptor (Homo sapiens, UniProt O43909).
T1 sequence (O43909 1-919): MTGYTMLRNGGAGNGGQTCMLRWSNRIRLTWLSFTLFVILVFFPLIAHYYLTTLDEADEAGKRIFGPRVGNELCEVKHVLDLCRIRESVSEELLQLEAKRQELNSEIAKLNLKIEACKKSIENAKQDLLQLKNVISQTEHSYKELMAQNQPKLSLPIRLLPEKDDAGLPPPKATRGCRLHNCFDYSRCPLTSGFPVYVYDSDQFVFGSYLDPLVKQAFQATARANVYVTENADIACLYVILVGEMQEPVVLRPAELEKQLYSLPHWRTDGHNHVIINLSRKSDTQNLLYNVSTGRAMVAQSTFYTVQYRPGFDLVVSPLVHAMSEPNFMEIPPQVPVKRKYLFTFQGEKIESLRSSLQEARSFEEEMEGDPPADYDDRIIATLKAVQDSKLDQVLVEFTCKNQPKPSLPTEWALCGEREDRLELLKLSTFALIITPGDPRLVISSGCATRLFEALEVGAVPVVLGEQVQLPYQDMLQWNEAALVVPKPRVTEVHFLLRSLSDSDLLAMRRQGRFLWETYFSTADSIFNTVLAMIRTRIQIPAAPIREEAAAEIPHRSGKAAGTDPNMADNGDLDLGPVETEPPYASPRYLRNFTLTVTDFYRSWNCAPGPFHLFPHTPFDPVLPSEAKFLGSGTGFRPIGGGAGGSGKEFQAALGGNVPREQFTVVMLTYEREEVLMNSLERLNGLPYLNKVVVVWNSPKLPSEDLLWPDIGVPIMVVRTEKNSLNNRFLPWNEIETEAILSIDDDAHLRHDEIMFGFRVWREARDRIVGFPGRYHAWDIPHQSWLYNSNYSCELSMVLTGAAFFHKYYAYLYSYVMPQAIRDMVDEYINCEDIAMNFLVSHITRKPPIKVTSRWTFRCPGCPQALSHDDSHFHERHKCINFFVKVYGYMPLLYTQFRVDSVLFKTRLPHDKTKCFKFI
As to the kind of experiment: Direct binding of Perle peptides to purified Reg Receptor coated on 96 well plate (strep-HRP, absorbance at 405 nm). Further details: FLAG; made in house; host or cells: 293T cells (transient transfection, harvested after 72 hours). The following applies: FIG. 9; for strength of binding to the Reg Receptor relative to the other peptides tested: comparison among 7-, 8-, 9-amino acid Perle peptides, HIP and scrambled control; for direct binding to the Reg Receptor: purified Reg Receptor coated on plate, peptides bound 1 hour at room temperature, absorbance at 405 nm. On the procedure: Cells were collected after 72 hours. The Reg Receptor was tagged with FLAG epitope and FLAG resin was utilized to purify out the Reg Receptor. […] The Reg Receptor was purified by Anti-Flag M2 affinity gel. Target protein was confirmed by 4-12% SDS-PAGE and Western-blot. […] FIGS. 7b and 7c are the Western blot results showing that the purified protein is the Reg Receptor using the antibody to the Reg Receptor (CD104). The Reg Receptor is shown In FIG. 7 to be highly purified.
Plates were coated overnight coated plate and washed three times with 0.5×TBST and blocked with 3% BSA and rotated at room temperature for 1 hour. After blocking, plates were washed three times with 0.5×TBST. Peptides were then diluted with TBST buffer and added into wells in duplicate then left to bind at room temperature for 1 hour. After washing three times, 100 ng/ml strep-HRP was added into plate at 100 ul/well, and rotated at room temperature for one hour. ABST reagents were warmed to room temperature, mixed immediately before using. Then 100 ul was added to each well and read after 25 minutes reaction and absorbance was evaluated at 405 nm by a Spectramax M5 plate reader. The purified Reg Receptor was coated on plates. Then plates were blocked with BSA solution. Subsequently, the Perle peptides were added into the wells, and HRP-straptavidin and its substrates were added into the wells to reveal the interaction between Receptor and the Perle peptide.

In assay [2] the test system is new small islets developing from non-endocrine tissue. The settings on record: cited from earlier work; for levels of new islet markers NGN3, NKX6.1, SOX9, and INS: five days after treatment; for increase in the volume of new small islets developing from non-endocrine tissue: in vivo.
The conditions of assay [3]: cited from earlier work.
Assay [4] deals with 20 amino acid Reg Receptor sequence (SEQ ID NO:9) (amino acids 117-136) (Homo sapiens, UniProt O43909). Briefly: Enzyme ImmunoAssay titers of polyclonal antibodies raised to the 20-amino acid Reg Receptor sequence. In kind it is binding. The settings on record: reference range of FIG. 13; bleed after day 0 and day 21 boosts. How it is done:
FIGS. 11-13 were from studies undertaken to develop stimulatory antibodies to the Reg Receptor to accelerate the progression of beta cell formation by stimulating potential binding sites on the Reg Receptor. For the production of […] antibodies, many sequences were evaluated within the N-terminal portion of Reg receptor (amino acids 1-332) (SEQ ID NO:13), which is the amino acid region believed to be the binding domain for the Reg peptides within the Reg receptor that is not contained in the other members of the of Exostoses family, and thus is hypothesized to be the Reg binding domain.
Data sets were taken from the bleed after the day 0 and day 21 boosts. The animals were injected with a peptide of SEQ ID NO: 9 and were conjugated to keyhole limpet hemocyanin (KLH). […] At a dilution of 1:750,000, the absorbance fell within a range of 0.45 to 0.9. […]
Previous studies have identified that Reg proteins and peptides act through a 919-amino acid cell-surface protein. […] For the production of stimulatory antibodies, sequences were evaluated within the N-terminal portion of the putative Reg Receptor (amino acids 1-332) (SEQ ID NO:13), which is the amino acid region of Reg Receptor that is not contained in the other members of the of Exostoses family, and thus is hypothesized to be the Reg binding domain.

Assay [5] concerns the target T1, Reg Receptor. Briefly: Western blot analysis of Reg Receptor translocation from cytoplasmic membrane to nucleus in human extra-islet ductal cells. In kind it is cell-based. The following applies: Perle peptide 167 nM once a day for four days, cytosolic and nuclear fractions, shorter and longer exposure times. On the procedure: Western blot analysis identified the presence of the Reg receptor on the cytoplasmic membrane and the movement of the Reg Receptor from the cytoplasmic membrane through the cytoplasm to the nucleus in the presence of the Perle peptides. Cytoplasmic extracts were obtained in 10 mM HEPES (pH 8.0), 1 mM EDTA, 1.5 mM MgCl2, 10 mM KCl, 0.5 mM DTT, 200 mM sucrose and 0.5% Nonidet P-40. Nuclear extracts were obtained in 20 mM HEPES (pH 7.9), 0.75 mM MgCl2, 210 mM NaCl, 50 mM KCl, 1 mM EDTA, 10% glycerol, and 0.5 mM DTT. Both extraction buffers contained 0.5 mM PMSF, 1 μg/ml leupeptin, 1 μg/ml aprotinin, 2.5 mM Na4P2O7, 1 mM β-glycerophosphate, and 1 mM Na3VO4. […] Secondary signals were developed with chemiluminescence substrate and analyzed by autoradiography. […]
Human extra-islet ductal cells were seeded in T75 flasks in Dulbecco's Modified Eagle media containing 10% fetal bovine serum. […] In these cell extracts the total protein levels were determined, and 50 micrograms of total protein were used to perform the western blot analysis. […]
Analyses were performed from cytoplasmic extracts were obtained in 10 mM HEPES (pH 8.0), 1 mM EDTA, 1.5 mM MgCl2, 10 mM KCl, 0.5 mM DTT, 200 mM sucrose and 0.5% Nonidet P-40. […] Secondary signals were developed with chemiluminescence substrate and analyzed by autoradiography. […]
On the technique in general: A western blot detects proteins with antibodies after separation by electrophoresis.

On to “HIP: 14-amino Reg 3a peptide sequence (Human Proislet Peptide), prior art (IGLHDPTQGTEPNG; listed as Homo sapiens) [reference compound]”, for which, in assay [1], the “strength of binding to the Reg Receptor relative to the other peptides tested” value was “same level of binding as the scrambled peptide” and the “direct binding to the Reg Receptor” value is listed as “no direct binding”. In assay [2], the “levels of new islet markers NGN3, NKX6.1, SOX9, and INS” value is given as “increased levels”; the “increase in the volume of new small islets developing from non-endocrine tissue” value is on record as 2 fold.

Regarding “INGAP: 15-amino acid peptide within the hamster Reg3gamma peptide sequence, prior art (IGLHDPSHGTLPNGS; listed as Mesocricetus auratus)”, in assay [3] (human type 1 patients, by day 56, p<0.001), the “rise in stimulated C-peptide” value was 27%. Besides, the “increase in stimulated C-peptide” value in assay [3] (type 1 patients, p=0.0057) is 27%. Moreover, in assay [2], the “levels of new islet markers NGN3, NKX6.1, SOX9, and INS” value is “increased levels”; the “increase in the volume of new small islets developing from non-endocrine tissue” value is on record as 2 fold.

For “NVWIGLHDP (listed as Homo sapiens) [SEQ. ID NO. 1, 9-amino acid Perle peptide within human Reg1a and Reg1b]”, the “direct binding to the Reg Receptor” value in assay [1] is “demonstrated binding”; in assay [1] (listed as 9-amino acid Perle peptide) it was “bind directly”.

With “SEQ ID NO: 9: 20-amino acid binding site within the human Reg receptor (amino acids 117-136), used as immunogen (CKKSIENAKQDLLQLKNVIS; listed as Homo sapiens)”, the “response to the antigen according to the polyclonal titer reference range” value in assay [4] is “high response”.

On to “VWIGLHDP (listed as Homo sapiens) [SEQ. ID NO. 4, 8-amino acid Perle peptide within human Reg1a, Reg1b and Reg3a]”, for which the “translocation of the Reg Receptor from the cytoplasm to the nucleus” value in assay [5] (listed as 8-amino acid Perle peptide) is given as “greatest ability”; in assay [5] (listed as 8-amino-acid Perle Peptide), “greatest impact”. The figures for the “strength of binding to the Reg Receptor relative to the other peptides tested” value in assay [1] and in assay [1] (listed as 8-amino acid peptide) were “greatest binding” and “strongest in binding”, respectively. Besides, the “direct binding to the Reg Receptor” value in assay [1] was “bind directly”.

For the substance “WIGLHDP (listed as Homo sapiens) [SEQ. ID NO. 7, 7-amino acid Perle peptide within human Reg1a, Reg1b, Reg3a and Reg4]”, the “direct binding to the Reg Receptor” value is “demonstrated binding” in assay [1] and “bind directly” in assay [1] (listed as 7-amino acid Perle peptide).
